From article PMC10311354, “RNA-binding is an ancient trait of the Annexin family” (Frontiers in Cell and Developmental Biology, 2023)

How the values were obtained:
[1] = test system: Δ142AnxA7 (Rattus norvegicus); experiment: BLI; settings: RNA-binding buffer: 10 mM triethanolamine pH 7.4, 50 mM KCl, 1 mM DTT, 2 mM MgSO4, 100 uM CaCl2; spot blot at RT, blocked with 1 mg/mL tRNA; BLI temperature …
[2] = test system: Δ188AnxA11 (Rattus norvegicus); experiment: BLI; settings: RNA-binding buffer: 10 mM triethanolamine pH 7.4, 50 mM KCl, 1 mM DTT, 2 mM MgSO4, 100 uM CaCl2; spot blot at RT, blocked with 1 mg/mL tRNA; BLI temperature …
[3] = test system: AnxA2 (Rattus norvegicus); experiment: BLI; settings: RNA-binding buffer: 10 mM triethanolamine pH 7.4, 50 mM KCl, 1 mM DTT, 2 mM MgSO4, 100 uM CaCl2; spot blot at RT, blocked with 1 mg/mL tRNA; BLI temperature …
[4] = test system: AnxA13 (Rattus norvegicus); experiment: BLI; settings: RNA-binding buffer: 10 mM triethanolamine pH 7.4, 50 mM KCl, 1 mM DTT, 2 mM MgSO4, 100 uM CaCl2; spot blot at RT, blocked with 1 mg/mL tRNA; BLI temperature …
[5] = biological target: the molecule itself; experiment: SDS-PAGE (Coomassie Brilliant Blue staining); purified recombinant rat Anxs on 4%-15% SDS-PAGE, denaturation buffer with beta-mercaptoethanol; dimeric forms seen as faint bands beside the monomer; nature of the dimers not known (disulfide or tight noncovalent)

| Molecule | Kd [1] | Kd [2] | Kd [3] | Kd [4] | binding result [5] |
| --- | --- | --- | --- | --- | --- |
| anxA2 3'UTR | 174 nM | > 500 nM | 192 nM | 246 nM | – |
| c-myc 3'UTR | 126 nM | 124 nM | 73.9 nM | 130 nM | – |
| c-myc 5'UTR | – | – | 37.2 nM | – | – |
| rat Annexin A1 (natural protein, UniProt P07150 1-346, looked up, Annexin A1, rat, isoform X1, 346 aa, cDNA by RT-PCR from PC12 cells; The forward primer puts ATGGGT before the natural start codon, so Met-Gly may precede the natural Met; also called AnxA1; source: E. coli BL21 (DE3), purified (Ni2+-NTA, size exclusion chromatography)) MAMVSEFLKQACYIEKQEQEYVQAVKSYKGGPGSAVSPYPSFNPSSDVAALHKAIMVKGVDEATIIDILTKRTNAQRQQIKAAYLQETGKPLDETLKKALTGHLEEVVLAMLKTPAQFDADELRAAMKGLGTDEDTLIEILTTRSNQQIREITRVYREELKRDLAKDITSDTSGDFRNALLALAKGDRCEDMSVNQDLADTDARALYEAGERRKGTDVNVFNTILTTRSYPHLRKVFQNYRKYSQHDMNKALDLELKGDIEKCLTTIVKCATSTPAFFAEKLYEAMKGAGTRHKTLIRIMVSRSEIDMNEIKVFYQKKYGIPLCQAILDETKGDYEKILVALCGGN | – | – | – | – | binds |
| rat Annexin A2 (natural protein, UniProt Q07936 1-339, looked up, The forward primer puts ATGGGT before the natural start codon, so Met-Gly may precede the natural Met; also called AnxA2; source: E. coli BL21 (DE3), purified (Ni2+-NTA, size exclusion chromatography)) MSTVHEILCKLSLEGDHSTPPSAYGSVKPYTNFDAERDALNIETAIKTKGVDEVTIVNILTNRSNAQRQDIAFAYQRRTKKELPSAMKSALSGHLETVMLGLLKTPAQYDASELKASMKGLGTDEDSLIEIICSRTNQELQEINRVYKEMYKTDLEKDIISDTSGEFRKLLVALAKGKRAEDGSVIDYELIDQDARELYDAGVKRKGTDVPKWISIMTERSVCHLQKVFERYKSYSPYDMLESIRKEVKGDLENAFLNLVQCIQNKPLYFADRLYDSMKGKGTRDKVLIRIMVSRSEVDMLKIRSEFKRKYGKSLYYFIQQDTKGDYQKALLYLCGGDD | – | – | – | – | binds |
| rat Annexin A3 (natural protein, UniProt P14669 1-324, looked up, The forward primer puts ATGGGT before the natural start codon, so Met-Gly may precede the natural Met; also called AnxA3; source: E. coli BL21 (DE3), purified (Ni2+-NTA, size exclusion chromatography)) MAASLWVGPRGTINNYPGFNPSVDAEAIRKAIKGIGTDEKTLINILTERSNAQRQLIVKQYQEAYEQALKADLKGDLSGHFEHVMVALITAPAVFDAKQLKKSMRGMGTDEDTLIEILTTRTSRQMKEISQAYYTAYKKNLRDDISSETSGDFRKALLTLADGGRDESLKVDEHLAKKDAQTLYDAGEKKWGTDEDKFTEILCLRSFPQLKLTFDEYRNISQKDIEDSIKGELSGHFEDLLLAVVRCTRNTPAFLAGRLHQALKGAGTDEFTLNRIMVSRSEIDLLDIRREFKKHYGCSLYSAIQSDTSGDYRTVLLKICGGDD | – | – | – | – | binds |
| rat Annexin A8 (natural protein, UniProt Q4FZU6 1-327, looked up, Annexin A8, rat, 327 aa, cDNA from total RNA of rat lung; The forward primer puts ATGGGT before the natural start codon, so Met-Gly may precede the natural Met; also called AnxA8; source: E. coli BL21 (DE3), purified (Ni2+-NTA, size exclusion chromatography)) MAWWKAWVEQEGVSVKGSSHFNPDPDAETLYKAMKGIGTNEQAIIDVLTKRSNVQRQQIAKSFKAQFGKDLTETLKSELSGKFERLIVALMYPPYRYEAKELHDAMKGLGTKEGVIIEILASRTKNQLREIMKAYEEDYGSTLEEDIQGDTSGYLERILVCLLQGCRDDVSGFVDPGLALQDAQDLHAAGEKILGTDEMKFITILCTRSATHLMRVFEEYEKIANKSIEDSIKSETHGSLEEAMLTVVKCTRNVHSYFAERLYYAMKGAGTLDGTLIRNIVSRSEIDLNLIKSQFQKMYGKTLSSMIMGDTSGYYKTALLNLVGTDL | – | – | – | – | binds |
